According to patent EP1659133:

What was measured:
[1] = target: RSV F protein (C-terminal truncated) (respiratory syncytial virus, UniProt P03420); assay: SPR
[2] = target: T1, RSV F protein from infected HEp2 cell lysate (respiratory syncytial virus, UniProt P03420); assay: ELISA, apparent (unit printed as 10mm)
[3] = target: T1, RSV F protein from infected HEp2 cell …; assay: ELISA, apparent

Chain of RSV F protein (C-terminal truncated) (P03420 26-524): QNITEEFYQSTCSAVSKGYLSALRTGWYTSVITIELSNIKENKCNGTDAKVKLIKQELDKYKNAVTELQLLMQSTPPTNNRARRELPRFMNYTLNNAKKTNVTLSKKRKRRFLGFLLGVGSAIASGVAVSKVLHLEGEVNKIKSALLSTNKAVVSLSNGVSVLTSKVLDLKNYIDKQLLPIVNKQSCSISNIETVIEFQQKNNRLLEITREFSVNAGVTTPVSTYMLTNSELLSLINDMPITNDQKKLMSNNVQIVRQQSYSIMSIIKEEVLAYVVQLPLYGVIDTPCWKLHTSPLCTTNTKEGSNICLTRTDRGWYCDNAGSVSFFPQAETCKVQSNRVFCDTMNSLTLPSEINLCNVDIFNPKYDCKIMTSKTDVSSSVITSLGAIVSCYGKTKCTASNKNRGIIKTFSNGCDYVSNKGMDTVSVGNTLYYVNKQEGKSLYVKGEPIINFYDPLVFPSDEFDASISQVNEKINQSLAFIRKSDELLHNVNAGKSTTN
T1 sequence (P03420 26-524): as above

B1: CH1129 (M1129HuGamma1,Kappa) (antibody, V domains shown)
VH: QVELQESGPGILQPSQTLSLTCSFSGFSLSTSGMSVGWIRQPSGEGLEWLADIWWDDKKDYNPSLKSRLTISKDTSSNQVFLKITGVDTADTATYYCARSMITNWYFDVWGAGTTVTVSS
VL: DIQLTQSPAIMSASPGEKVTMTCSASSSVGYMHWYQQKSSTSPKLWIYDTSKLASGVPGRFSGSGSGNSYSLTISSIQAEDVATYYCFQGSGYPFTFGGGTKLEIK
[1]
  Kd: 1.5 nM
[2]
  Kd: 10 nM

B2: M1129 (antibody, V domains shown)
VH: QVELQESGPGILQPSQTLSLTCSFSGFSLSTSGMSVGWIRQPSGEGLEWLADIWWDDKKDYNPSLKSRLTISKDTSSNQVFLKITGVDTADTATYYCARSMITNWYFDVWGAGTTVTVSS
VL: DIQLTQSPAIMSASPGEKVTMTCSASSSVGYMHWYQQKSSTSPKLWIYDTSKLASGVPGRFSGSGSGNSYSLTISSIQAEDVATYYCFQGSGYPFTFGGGTKLEIK
[1]
  Kd: 11.4 nM

B3: H1129 (humanized 1129) (antibody, V domains shown)
VH: QVTLRESGPALVKPSQTLTLTCSFSGFSLSTSGMSVGWIRQPSGKALEWLADIWWDDKKDYNPSLKSRLTISKDTSKNQVVLKVTNVDPADTATYYCARSMITNWYFDVWGAGTTVTVSS
VL: DIQMTQSPSTLSASVGDRVTITCKCQLSVGYMHWYQQKPGKAPKLWIYDTSKLASGVPSRFSGSGSGTEFTLTISSLQPDDFATYYCFQGSGYPFTFGGGTKLEIK
[3]
  Kd: 0.7 nM
[1]
  Kd: 1.4 nM

B4: H1308F (antibody, V domains shown)
VH: QVQLVQSGAEVKKPGASVKVSCKASGFNIKDYYIYWVRQAPGQGLEWIGWIDPENGNTVFDPKFQGRVTMTRDTSTSTVYMELSSLRSEDTAVYYCAYYGTSSFDFWGQGTTLTVSS
VL: DIQMTQSPSTLSASVGDRVTITCKASQDINRYLNWYQQKPGKAPKLLIYRANRLVDGVPSRFSGSGSGTEFTLTISSLQPDDFATYYCLQFHEFPYTFGGGTKLEIK
[1]
  Kd: 2.5 nM

B5: M1308F (antibody, V domains shown)
VH: EVQLQQSGAELVRPGALVKLSCKASGFNIKDYYIYWVKQRPEQGLEWIGWIDPENGNTVFDPKFQGKASITSDTSSNTAYLQLSSLTSEDTAVYYCAYYGTSSFDFWGQGTTLTVSS
VL: DIKMTQSPSSMYVSLGERVTITCKASQDINRYLNWFQQKPGKSPKTLIHRANRLVDGVPSRFSGSGSGQEYSLTISSLEFEDMGIYYCLQFHEFPYTFGGGTKLEIK
[1]
  Kd: 1.1 nM
